Source: the supplement of paper PMC7877785
± gives the uncertainty stated by the source.

Test: self-splicing fitness, log relative to wild type (ln ratio); higher = more splicing; Tetrahymena group I intron in knt gene, E. coli kanamycin selection, DiMSum; sequences stand for … in CUCUCU…GGAGGGAAAAGUUAUCAGGCAUGCACCUGGUAGCUAGUCUUUAAACCAAUAGAUUGCAUCGGUUUAAAAGGCAAGACCGUCAAAUUGCGGGAAAGGGGUCAACAGCCGUUCAGUACCAAGUCUCAGGGGAAACUUUGAGAUGGCCUUGCAAAGGGUAUGGUAAUAAGCUGACGGACAUGGUCCUAACCACGCAGCCAAGUCCUAAGUCAACAGAUCUUCUGUUGAUAUGGAUGCAGUUCACAGACUAAAUGUCGGUCGGGGAAGAUGUAUUCUUCUCAUAAGAUAUAGUCGGACCUCUCCUUAAUGGGAGCUAGCGGAUGAAGUGAUGCAACACUGGAGCCGCUGGGAACUAAUUUGUAUGCGAAAGUAUAUUGAUUAGUUUUGGAGUACUCGUGGUCG
Outline: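 Pooled colonies went to amplicon sequencing on an Illumina HiSeq 2500 after six replicate transformations. The plates were LB agar with 100 μg/mL carbenicillin, 50 μM IPTG and 0.2% rhamnose, with or without 25 μg/mL kanamycin, incubated overnight at 37°C or 30°C. The E. coli BL21(DE3) library had all eight P1ex-region intron nucleotides randomised, the intron placed in the knt kanamycin-resistance gene on pET-22b(+). DiMSum fitness is the error-weighted combination of replicate fold changes, kanamycin against none, normalised to wild type.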

CGACAGCAAUAUUACGUCCG
self-splicing fitness (ln) (30 °C): -1.31 ± 0.12 | self-splicing fitness (ln) (37 °C): -1.04 ± 0.12

CGACAGCAAUAUUACGUCUA
self-splicing fitness (ln) (30 °C): -0.367 ± 0.052 | self-splicing fitness (ln) (37 °C): 0.0477 ± 0.061

CGACAGCAAUAUUACGUUCA
self-splicing fitness (ln) (30 °C): -0.308 ± 0.054 | self-splicing fitness (ln) (37 °C): 0.198 ± 0.087

CGACAGCAAUAUUACGUUGA
self-splicing fitness (ln) (30 °C): -3.63 ± 0.15 | self-splicing fitness (ln) (37 °C): -1.85 ± 0.1

CGAGAGCAAUAUUACGAACG
self-splicing fitness (ln) (30 °C): -2.48 ± 0.2 | self-splicing fitness (ln) (37 °C): -1.04 ± 0.21

CGAGAGCAAUAUUACGACCA
self-splicing fitness (ln) (30 °C): -2.78 ± 0.37

CGAGAGCAAUAUUACGAGAC
self-splicing fitness (ln) (30 °C): -2.64 ± 0.46

CGAGAGCAAUAUUACGAGCG
self-splicing fitness (ln) (30 °C): -0.966 ± 0.11 | self-splicing fitness (ln) (37 °C): -1.72 ± 0.18

CGAGAGCAAUAUUACGAGGG
self-splicing fitness (ln) (30 °C): -4.22 ± 0.31 | self-splicing fitness (ln) (37 °C): -3.16 ± 0.27

CGAGAGCAAUAUUACGAUCC
self-splicing fitness (ln) (30 °C): -3.95 ± 0.46 | self-splicing fitness (ln) (37 °C): -2.36 ± 0.28

CGAGAGCAAUAUUACGAUGC
self-splicing fitness (ln) (37 °C): -1.63 ± 0.35

CGAGAGCAAUAUUACGCAGG
self-splicing fitness (ln) (37 °C): -1.63 ± 0.17

CGAGAGCAAUAUUACGCCUU
self-splicing fitness (ln) (30 °C): -3.73 ± 0.43 | self-splicing fitness (ln) (37 °C): -1.07 ± 0.29

CGAGAGCAAUAUUACGCGAU
self-splicing fitness (ln) (30 °C): -3.7 ± 0.48 | self-splicing fitness (ln) (37 °C): -1.04 ± 0.37

CGAGAGCAAUAUUACGCUGA
self-splicing fitness (ln) (30 °C): -2.91 ± 0.44 | self-splicing fitness (ln) (37 °C): -0.634 ± 0.27

CGAGAGCAAUAUUACGGAAG
self-splicing fitness (ln) (30 °C): -3.57 ± 0.28 | self-splicing fitness (ln) (37 °C): -2.54 ± 0.23

CGAGAGCAAUAUUACGGGCU
self-splicing fitness (ln) (30 °C): -3.67 ± 0.22 | self-splicing fitness (ln) (37 °C): -2.18 ± 0.28

CGAGAGCAAUAUUACGGGGA
self-splicing fitness (ln) (30 °C): -3.24 ± 0.47 | self-splicing fitness (ln) (37 °C): -1.74 ± 0.31

CGAGAGCAAUAUUACGGUAU
self-splicing fitness (ln) (30 °C): -3.41 ± 0.28 | self-splicing fitness (ln) (37 °C): -2.88 ± 0.29

CGAGAGCAAUAUUACGGUGC
self-splicing fitness (ln) (30 °C): -3.73 ± 0.25 | self-splicing fitness (ln) (37 °C): -3.43 ± 0.46

CGAGAGCAAUAUUACGUCAA
self-splicing fitness (ln) (30 °C): -3.22 ± 0.21 | self-splicing fitness (ln) (37 °C): -2.4 ± 0.27

CGAGAGCAAUAUUACGUGCC
self-splicing fitness (ln) (37 °C): -2.05 ± 0.38

CGAGAGCAAUAUUACGUGGG
self-splicing fitness (ln) (30 °C): -2.27 ± 0.35 | self-splicing fitness (ln) (37 °C): -1.42 ± 0.28

CGAGAGCAAUAUUACGUUGU
self-splicing fitness (ln) (37 °C): -1.57 ± 0.19

CGAGAGCAAUAUUACGUUUA
self-splicing fitness (ln) (30 °C): -3.35 ± 0.36 | self-splicing fitness (ln) (37 °C): -3.25 ± 0.47

CGAUAGCAAUAUUACGAUCA
self-splicing fitness (ln) (30 °C): -0.106 ± 0.06 | self-splicing fitness (ln) (37 °C): 0.441 ± 0.087

CGAUAGCAAUAUUACGAUCC
self-splicing fitness (ln) (30 °C): -0.714 ± 0.13 | self-splicing fitness (ln) (37 °C): 0.104 ± 0.19

CGAUAGCAAUAUUACGAUGU
self-splicing fitness (ln) (30 °C): -0.22 ± 0.14 | self-splicing fitness (ln) (37 °C): -0.614 ± 0.16

CGAUAGCAAUAUUACGAUUC
self-splicing fitness (ln) (30 °C): -3.87 ± 0.39 | self-splicing fitness (ln) (37 °C): -0.777 ± 0.17

CGAUAGCAAUAUUACGCGCU
self-splicing fitness (ln) (30 °C): -0.899 ± 0.12 | self-splicing fitness (ln) (37 °C): -1.02 ± 0.12

CGAUAGCAAUAUUACGGAUC
self-splicing fitness (ln) (30 °C): -3.1 ± 0.3 | self-splicing fitness (ln) (37 °C): -2.6 ± 0.23

CGAUAGCAAUAUUACGGGAA
self-splicing fitness (ln) (30 °C): -2.74 ± 0.32 | self-splicing fitness (ln) (37 °C): -2.33 ± 0.25

CGAUAGCAAUAUUACGGGCC
self-splicing fitness (ln) (30 °C): -1.62 ± 0.49 | self-splicing fitness (ln) (37 °C): -1.8 ± 0.4

CGAUAGCAAUAUUACGUAGC
self-splicing fitness (ln) (30 °C): -3.25 ± 0.19 | self-splicing fitness (ln) (37 °C): -2.68 ± 0.34

CGAUAGCAAUAUUACGUGCU
self-splicing fitness (ln) (30 °C): -3.92 ± 0.34 | self-splicing fitness (ln) (37 °C): -1.34 ± 0.17

CGAUAGCAAUAUUACGUGGU
self-splicing fitness (ln) (30 °C): -3.97 ± 0.16 | self-splicing fitness (ln) (37 °C): -1.94 ± 0.12

CGAUAGCAAUAUUACGUGUC
self-splicing fitness (ln) (30 °C): -3.67 ± 0.2 | self-splicing fitness (ln) (37 °C): -2.64 ± 0.16

CGCAAGCAAUAUUACGAACC
self-splicing fitness (ln) (30 °C): -2.01 ± 0.19 | self-splicing fitness (ln) (37 °C): -0.722 ± 0.19

CGCAAGCAAUAUUACGACAG
self-splicing fitness (ln) (30 °C): -0.409 ± 0.083 | self-splicing fitness (ln) (37 °C): 0.344 ± 0.13

CGCAAGCAAUAUUACGAGAA
self-splicing fitness (ln) (37 °C): -2.03 ± 0.42

CGCAAGCAAUAUUACGAGAC
self-splicing fitness (ln) (30 °C): -3.4 ± 0.22 | self-splicing fitness (ln) (37 °C): -1.81 ± 0.21

CGCAAGCAAUAUUACGAUGA
self-splicing fitness (ln) (30 °C): -0.874 ± 0.064 | self-splicing fitness (ln) (37 °C): -0.853 ± 0.071

CGCAAGCAAUAUUACGCAAG
self-splicing fitness (ln) (30 °C): -2.84 ± 0.31 | self-splicing fitness (ln) (37 °C): -2.2 ± 0.31

CGCAAGCAAUAUUACGCCCU
self-splicing fitness (ln) (30 °C): -0.736 ± 0.085 | self-splicing fitness (ln) (37 °C): 0.327 ± 0.12

CGCAAGCAAUAUUACGCUCG
self-splicing fitness (ln) (30 °C): -3.87 ± 0.32 | self-splicing fitness (ln) (37 °C): -2.95 ± 0.29

CGCAAGCAAUAUUACGGCCU
self-splicing fitness (ln) (30 °C): -2.59 ± 0.14 | self-splicing fitness (ln) (37 °C): -0.135 ± 0.13

CGCAAGCAAUAUUACGGGAU
self-splicing fitness (ln) (30 °C): -4.29 ± 0.26 | self-splicing fitness (ln) (37 °C): -2.95 ± 0.23

CGCAAGCAAUAUUACGGGGA
self-splicing fitness (ln) (30 °C): -3.1 ± 0.2 | self-splicing fitness (ln) (37 °C): -2.69 ± 0.23

CGCAAGCAAUAUUACGGGUU
self-splicing fitness (ln) (30 °C): -4.62 ± 0.3 | self-splicing fitness (ln) (37 °C): -2.7 ± 0.2

CGCAAGCAAUAUUACGGUAG
self-splicing fitness (ln) (30 °C): -0.472 ± 0.053 | self-splicing fitness (ln) (37 °C): -0.388 ± 0.06
